Test results from patent US20250388667A1 (BIO THERA SOLUTIONS, published 2025).
Where a chain is given by its changes, count along the chain named.

B1: reference antibody ASG-22 (antibody, human IgG1, kappa, V domains shown)
VH: EVQLVESGGGLVQPGGSLRLSCAASGFTFSSYNMNWVRQAPGKGLEWVSYISSSSSTIYYADSVKGRFTISRDNAKNSLSLQMNSLRDEDTAVYYCARAYYYGMDVWGQGTLVTVSS
VL: DIQMTQSPSSVSASVGDRVTITCRASQGISGWLAWYQQKPGKAPKFLIYAASTLQSGVPSRFSGSGSGTDFTLTISSLQPEDFATYYCQQANSFPPTFGGGTKVEIKR
B2: antibody 1F3-2F3 (antibody, human IgG1, kappa, V domains shown)
VH: EVQLVESGGGLVQPGGSLRLSCAASGFNFSDYGMSWVRQAPGKGLEWVSRIDWDGGNTRYADSVKGRFTISRDNSKNTLYLQMNSLRAEDTAVYYCARAELLAFDVYTASDYWGQGTLVTVSS
VL: B1 VL with V11L, G31S, W32Y, F46L, T53S, A91H, N92Y, S93T, F94T, G100Q
notes: intact antibody
B3: antibody 1F3-2B1 (antibody, human IgG1, kappa, V domains shown)
VH: EVQLVESGGGLVQPGGSLRLSCAASGYNFDNYAMSWVRQAPGKGLEWVSGIKPDSATTYYADSVKGRFTISRDNSKNTLYLQMNSLRAEDTAVYYCARAELLAFDVYTASDYWGQGTLVTVSS
VL: B1 VL with V11L, G31S, W32Y, F46L, T53S, A91H, N92Y, S93T, F94T, G100Q
notes: intact antibody
B4: antibody 10F4-3 (antibody, human IgG1, kappa, V domains shown)
VH: EVQLVESGGGLVQPGGSLRLSCAASGFSFGDFAMSWVRQAPGKGLEWVSVIDGHTAYNSYADSVKGRFTISRDNSKNTLYLQMNSLRAEDTAVYYCAREYSDVVDYVSVRTPLDYWGQGTLVTVSS
VL: B1 VL with V11L, G31S, W32Y, F46L, T53S, A91H, N92Y, S93T, F94T, G100Q
notes: intact antibody
B5: antibody 10F4-5 (antibody, human IgG1, kappa, V domains shown)
VH: EVQLVESGGGLVQPGGSLRLSCAASGFIFDGYDMSWVRQAPGKGLEWVSVIKDHGGYKFYADSVKGRFTISRDNSKNTLYLQMNSLRAEDTAVYYCAREYSDVVDYVSVRTPLDYWGQGTLVTVSS
VL: B1 VL with V11L, G31S, W32Y, F46L, T53S, A91H, N92Y, S93T, F94T, G100Q
notes: intact antibody
B6: antibody 10F4-1 (antibody, human IgG1, kappa, V domains shown)
VH: EVQLVESGGGLVQPGGSLRLSCAASGDSFTNYWMSWVRQAPGKGLEWVSGISQGGSYAYYADSVKGRFTISRDNSKNTLYLQMNSLRAEDTAVYYCAREYSDVVDYVSVRTPLDYWGQGTLVTVSS
VL: B1 VL with V11L, G31S, W32Y, F46L, T53S, A91H, N92Y, S93T, F94T, G100Q
notes: intact antibody
B7: antibody 1F3-1B1 (antibody, human IgG1, kappa, V domains shown)
VH: B3 VH with Y27F, N28T, D30G, N31T, A33G, D54G, S55D, A56S
VL: B1 VL with V11L, G31S, W32Y, F46L, T53S, A91H, N92Y, S93T, F94T, G100Q
notes: intact antibody
B8: antibody 1F3-1E1 (antibody, human IgG1, kappa, V domains shown)
VH: B3 VH with Y27F, N28S, N31D, G50I, K52Y, D54T, S55G, A56S, T58N
VL: B1 VL with V11L, G31S, W32Y, F46L, T53S, A91H, N92Y, S93T, F94T, G100Q
notes: intact antibody
B9: antibody 1F3-1G11 (antibody, human IgG1, kappa, V domains shown)
VH: B3 VH with N28S, D30T, N31G, A33G, K52S, D54S, S55G, A56G, T58I, Y59G
VL: B1 VL with V11L, G31S, W32Y, F46L, T53S, A91H, N92Y, S93T, F94T, G100Q
notes: intact antibody
B10: antibody 1F3-2E8 (antibody, human IgG1, kappa, V domains shown)
VH: B2 VH with F27Y, N28S, R50W, D52S, W53P, D54S, G55K, N57S, T58A, R59S
VL: B1 VL with V11L, G31S, W32Y, F46L, T53S, A91H, N92Y, S93T, F94T, G100Q
notes: intact antibody
B11: antibody 1F3 (antibody, human IgG1, kappa, V domains shown)
VH: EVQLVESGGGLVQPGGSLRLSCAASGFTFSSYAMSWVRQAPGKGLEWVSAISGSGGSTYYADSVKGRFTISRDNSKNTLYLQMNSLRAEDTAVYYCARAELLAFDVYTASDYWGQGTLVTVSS
VL: B1 VL with V11L, G31S, W32Y, F46L, T53S, A91H, N92Y, S93T, F94T, G100Q
notes: intact antibody
B12: antibody 1G8 (antibody, human IgG1, kappa, V domains shown)
VH: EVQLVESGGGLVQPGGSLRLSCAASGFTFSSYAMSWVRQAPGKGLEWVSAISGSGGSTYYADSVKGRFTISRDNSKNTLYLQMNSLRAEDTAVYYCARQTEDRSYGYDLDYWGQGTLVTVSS
VL: B1 VL with V11L, G31S, W32Y, F46L, T53S, A91H, N92Y, S93T, F94T, G100Q
notes: intact antibody
B13: antibody 10F4 (antibody, human IgG1, kappa, V domains shown)
VH: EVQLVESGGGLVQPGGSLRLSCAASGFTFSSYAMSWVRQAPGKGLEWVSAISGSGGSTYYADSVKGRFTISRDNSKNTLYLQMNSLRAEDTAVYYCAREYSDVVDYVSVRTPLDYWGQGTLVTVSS
VL: B1 VL with V11L, G31S, W32Y, F46L, T53S, A91H, N92Y, S93T, F94T, G100Q
notes: intact antibody
B14: antibody 3A10 (antibody, human IgG1, kappa, V domains shown)
VH: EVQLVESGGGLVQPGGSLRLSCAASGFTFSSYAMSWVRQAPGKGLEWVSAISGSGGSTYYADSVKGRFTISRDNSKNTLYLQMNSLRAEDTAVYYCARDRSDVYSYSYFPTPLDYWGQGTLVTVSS
VL: B1 VL with V11L, G31S, W32Y, F46L, T53S, A91H, N92Y, S93T, F94T, G100Q
notes: intact antibody
B15: antibody 1B4 (antibody, human IgG1, kappa, V domains shown)
VH: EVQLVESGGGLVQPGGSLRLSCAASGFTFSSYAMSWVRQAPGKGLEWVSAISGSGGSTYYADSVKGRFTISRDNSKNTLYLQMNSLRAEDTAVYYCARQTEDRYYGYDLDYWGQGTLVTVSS
VL: B1 VL with V11L, G31S, W32Y, F46L, T53S, A91H, N92Y, S93T, F94T, G100Q
notes: intact antibody
B16: antibody 10A4 (antibody, human IgG1, kappa, V domains shown)
VH: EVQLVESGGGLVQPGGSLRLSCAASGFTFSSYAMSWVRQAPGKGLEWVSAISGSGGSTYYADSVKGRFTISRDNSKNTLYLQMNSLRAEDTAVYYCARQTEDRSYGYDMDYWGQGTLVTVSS
VL: B1 VL with V11L, G31S, W32Y, F46L, T53S, A91H, N92Y, S93T, F94T, G100Q
notes: intact antibody

target: T1, Nectin-4 on T-47D cells (human, UniProt Q96NY8 32-510); assay: FACS on T-47D cells, 10 µg/mL on ice, 0 h point of the endocytosis assay
T1 construct: whole, on cells; endogenous expression; also called T-47D cells positive for Nectin-4 expression
T1 sequence (looked up): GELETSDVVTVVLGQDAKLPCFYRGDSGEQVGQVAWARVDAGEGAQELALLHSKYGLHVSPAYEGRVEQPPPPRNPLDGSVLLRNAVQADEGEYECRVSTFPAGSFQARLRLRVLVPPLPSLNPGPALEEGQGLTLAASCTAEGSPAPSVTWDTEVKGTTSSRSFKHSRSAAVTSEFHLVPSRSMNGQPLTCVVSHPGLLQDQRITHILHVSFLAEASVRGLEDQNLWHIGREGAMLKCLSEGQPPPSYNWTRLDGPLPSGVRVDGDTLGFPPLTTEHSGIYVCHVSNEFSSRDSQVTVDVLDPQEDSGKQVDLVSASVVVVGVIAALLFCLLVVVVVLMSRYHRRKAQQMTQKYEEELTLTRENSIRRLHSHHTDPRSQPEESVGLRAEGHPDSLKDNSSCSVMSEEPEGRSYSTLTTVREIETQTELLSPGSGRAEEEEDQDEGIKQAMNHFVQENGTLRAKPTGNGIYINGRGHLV
Protocol: (§1) In this assay, the relative amount of antibodies remaining on the cell surface after co-incubation at 37° C. for a certain period of time was detected by FACS to reflect the endocytosis efficiency. The procedures are briefly described as follows: T-47D cells (human ductal breast cancer cells, derived from the Cell Bank of Chinese Academy of Sciences, Cat. No. TCHu 87); the antibodies were adjusted to 10 μg/mL and co-incubated with the cells on ice for 1 h; the cells were washed 3 times with pre-cooled PBS, and then placed at 37° C. and incubated for 0 h, 2 h and 4 h; 0.2% N₃Na was added to stop the endocytosis reaction; the cells were washed with PBS thrice, followed by the addition of the PE-labeled anti-human Fc secondary antibody (Invitrogen 12-4998-82); the cells were incubated at 4° C. for 30 min; the red fluorescence signal was detected on a flow cytometer.

Point of comparison: B6, “MFI (0 h)” value 58600 MFI. Against it:
- B1 — the same, 58600 MFI
- B2 — higher, 69000 MFI
- B3 — higher, 59400 MFI
- B4 — higher, 61200 MFI
- B5 — higher, 63400 MFI
- B7 — higher, 65300 MFI
- B8 — higher, 73400 MFI
- B9 — higher, 60500 MFI
- B10 — lower, 58200 MFI

target: T1, Nectin-4 on T-47D cells; assay: as above; remark: another data set of the same source
Protocol: as §1

Point of comparison: B14, “MFI (0 h)” value 105000 MFI. Against it:
- B11 — higher, 121000 MFI
- B12 — the same, 105000 MFI
- B13 — lower, 104000 MFI
- B1 — higher, 107000 MFI
- B15 — higher, 108000 MFI
- B16 — higher, 107000 MFI

target: T2, hNectin-2 (ACRO, PV2-H52E2) (human, UniProt Q92692 32-360); assay: ELISA, antigen coated, HRP-labeled anti-human-Kappa secondary antibody
T2 construct: bought
T2 sequence (looked up): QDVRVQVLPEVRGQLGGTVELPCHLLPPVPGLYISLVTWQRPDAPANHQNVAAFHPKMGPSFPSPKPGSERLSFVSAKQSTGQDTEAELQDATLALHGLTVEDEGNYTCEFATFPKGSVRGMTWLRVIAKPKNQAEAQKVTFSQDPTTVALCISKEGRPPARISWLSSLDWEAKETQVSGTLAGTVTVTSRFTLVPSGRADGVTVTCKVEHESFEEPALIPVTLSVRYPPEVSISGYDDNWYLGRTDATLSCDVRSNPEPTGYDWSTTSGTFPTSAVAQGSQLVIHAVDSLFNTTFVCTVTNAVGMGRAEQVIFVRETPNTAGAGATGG
Protocol: (§2) The binding activity of intact antibodies was detected by ELISA. The procedures are briefly described as follows: the hNectin-4-His antigen protein of Example 1 was immobilized at a concentration of 1 μg/mL on a plate; the plate was blocked with skimmed milk powder overnight, and then, serially diluted antibodies of interest were added for co-incubation (antibodies in Table 9 were serially 2-fold diluted from 2 μg/mL; antibodies in Tables 10 and 11 were serially 3-fold diluted from 10 μg/mL) at room temperature for 2 h; then an HRP-labeled anti-human-kappa (Sigma, A7164) secondary antibody was added for co-incubation for 1 h, followed by the addition of TMB (Huzhou InnoReagents, TMB-S-001) for chromogenic reaction, and the reaction was stopped with 0.1 M H₂SO₄; after the absorbance at OD450 was read on a microplate reader, the binding EC₅₀ value for each antibody was calculated by four-parameter fitting, and the binding activities of the antibodies were compared.
(§3) In this assay, the binding of different antibodies to human Nectin-4 homologous proteins hNectin-1 (ACRO, PV1-H5223), hNectin-2 (ACRO, PV2-H52E2), hNectin-3 (ACRO, PV3-H52E4), and hNectin-4-His was detected by ELISA to determine the specificity of the antibodies. For the methodology and procedures, see Example 4. Antigens of interest ([…]) were immobilized; after blocking, serially diluted antibodies (2-fold serially diluted from […]) were added, and HRP-labeled anti-human-Kappa secondary antibody was added for chromogenic reaction.

B11: no binding (tested: 2000 ng/mL).
B12: no binding (tested: 2000 ng/mL).
B13: no binding (tested: 2000 ng/mL).

target: T3, hNectin-1 (ACRO, PV1-H5223) (human, UniProt Q15223 31-334); assay: as above
T3 construct: bought
T3 sequence (looked up): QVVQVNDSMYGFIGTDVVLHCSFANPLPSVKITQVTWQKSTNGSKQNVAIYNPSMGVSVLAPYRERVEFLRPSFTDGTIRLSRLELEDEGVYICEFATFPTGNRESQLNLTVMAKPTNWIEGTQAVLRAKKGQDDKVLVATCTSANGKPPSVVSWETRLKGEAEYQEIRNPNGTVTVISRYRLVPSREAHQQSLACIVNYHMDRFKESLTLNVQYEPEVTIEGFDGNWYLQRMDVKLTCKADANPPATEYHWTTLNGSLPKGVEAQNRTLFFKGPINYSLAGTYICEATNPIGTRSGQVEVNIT
Protocol: as §2, §3

B11: no binding (tested: 2000 ng/mL).
B12: no binding (tested: 2000 ng/mL).
B13: no binding (tested: 2000 ng/mL).
